{"source": "paper PMC7909649", "about": "“Eukaryotic translation initiation factor 5A and its posttranslational modifications play an important role in proliferation and potentially in differentiation of the human enteric protozoan parasite Entamoeba histolytica” (PLoS Pathogens, 2021)", "binders": {"B1": {"name": "Entamoeba histolytica deoxyhypusine synthase 2 (EhDHS2) with carboxyl-terminal S-tag, co-expressed with EhDHS1 (natural protein, UniProt C4M2N7 1-336, looked up)", "chain": "MSITGEEFAKVTSKVLGESKEYKGEKCIGYDFDNGVDFNKVMEKMKYTGFQALNLGLCIEQVNEMRKNHAKIFLGMSSNIVSSGLREVIHYLVKNKFVDAIVVTAGGIEEDFIKTMHPTLLGDFYFKGKELYPNGYNRIGNLILPNSNYCEFEDWMDPLLLECLKEQNEHGVHWTPSKLVHKMGESINNESSIYYWAAKNNIPVFSPAITDGSIGDMIFFFSYKNEGLVLDLVQDVIKIDEMAFNAEKVGCLLVGAGIAKHHILNAMKRRGGCDYCAMLSTSIECDASDAGSEIAADRTKGFFKPECNPAKVIGDATILLPLIVASTFAQKEEPTK", "notes": "Deoxyhypusine synthase isotype 2 (EhDHS2) of Entamoeba histolytica, EHI_006030, XP_653426; stop codon removed to fuse the C-terminal S-tag of pETDuet; also called S-tag DHS2; EHI_006030; source: E. coli BL21 (DE3), co-expressed with EhDHS1 from pETDuet-EhDHS1/2; in lysate and copurified on Ni2+-NTA; not shown: S-tag, C-terminal, kept"}}, "target": "T1, Entamoeba histolytica deoxyhypusine synthase 1 (EhDHS1) with amino-terminal His-tag, co-expressed with EhDHS2 (Entamoeba histolytica, UniProt C4LXB8 1-331)", "T1 construct": "Deoxyhypusine synthase isotype 1 (EhDHS1) of Entamoeba histolytica, EHI_098350, XP_653614; the catalytically active isotype; also called His-tag DHS1; EHI_098350; source: E. coli BL21 (DE3), co-expressed with EhDHS2 from pETDuet-EhDHS1/2; in lysate and copurified on Ni2+-NTA; not shown: His tag, N-terminal, kept", "T1 sequence (looked up)": "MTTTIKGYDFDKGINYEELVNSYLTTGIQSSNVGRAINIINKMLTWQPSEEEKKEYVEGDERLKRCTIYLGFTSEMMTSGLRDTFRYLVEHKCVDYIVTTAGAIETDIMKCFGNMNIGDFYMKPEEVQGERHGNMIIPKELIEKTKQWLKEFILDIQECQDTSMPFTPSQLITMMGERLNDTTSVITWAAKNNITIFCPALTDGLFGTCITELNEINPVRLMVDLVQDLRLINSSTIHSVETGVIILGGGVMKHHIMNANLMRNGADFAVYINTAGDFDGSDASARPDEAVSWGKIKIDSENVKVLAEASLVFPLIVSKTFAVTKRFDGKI", "experiment": "pull-down; Co-expression of His-EhDHS1 and EhDHS2-S-tag in E. coli BL21 (DE3); lysate (50 mM Tris-HCl pH 8.0, 300 mM NaCl, 10 mM imidazole, 0.1% Triton X-100) on Ni2+-NTA resin, 1 hr at 4°C; washed with 10-50 mM imidazole, eluted with 100-300 mM imidazole; immunoblot with anti-His and anti-S tag antibodies", "settings": "partners not purified"}
{"binder": "B1", "values": [{"measurement": "stoichiometry N", "result": "1 EhDHS1:EhDHS2"}]}
